Test system: Escherichia coli TOP10
Test: shrunken log2 fold change of peptide-encoding DNA abundance (4.5 h post-induction vs induction); higher = less antimicrobial activity (less host growth inhibition)
Details: time post-induction: 4.5 h; library: site-saturation at positions 5, 18, 19, 20
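Further: peptides expressed intracellularly from a pBAD plasmid library in pooled LB shake-flask culture, induced with 0.3% L-arabinose, DNA abundance read by NGS, three biological replicates, DESeq2 with apeglm shrinkage.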

Sequence	shrunken log2 fold change
RRIRYRPPRLPRPRPRPFWTPRP	-0.111
RRIRTRPPRLPRPRPRPTYTPRP	-0.496
RRIRRRPPRLPRPRPRPLKEPRP	0.0888
RRIRKRPPRLPRPRPRPQQRPRP	0.0562
RRIRARPPRLPRPRPRPNLTPRP	0.287
RRIRTRPPRLPRPRPRPITIPRP	-0.151
RRIRLRPPRLPRPRPRPAIIPRP	-0.197
RRIRKRPPRLPRPRPRPLIPPRP	-0.000217
RRIRLRPPRLPRPRPRPWTCPRP	-0.54
RRIRQRPPRLPRPRPRPAVPPRP	-0.0193
RRIRRRPPRLPRPRPRPHGDPRP	0.0543
RRIRIRPPRLPRPRPRPSNMPRP	-0.353
RRIRVRPPRLPRPRPRPKFMPRP	-0.0954
RRIRRRPPRLPRPRPRPGLCPRP	0.457
RRIRPRPPRLPRPRPRPPKEPRP	0.506
RRIRHRPPRLPRPRPRPRRLPRP	-0.0808
RRIRLRPPRLPRPRPRPTIMPRP	-0.334
RRIRDRPPRLPRPRPRPCTTPRP	-0.00176
RRIRVRPPRLPRPRPRPELSPRP	0.119
RRIRKRPPRLPRPRPRPNCQPRP	-0.263
RRIRVRPPRLPRPRPRPQNQPRP	-0.388
RRIRLRPPRLPRPRPRPARCPRP	0.651
RRIRIRPPRLPRPRPRPILVPRP	0.0273
RRIRQRPPRLPRPRPRPHPHPRP	-0.136
RRIRYRPPRLPRPRPRPGWAPRP	0.0172

Sequence	shrunken log2 fold change
RRIRKRPPRLPRPRPRPFNAPRP	0.0749
RRIRSRPPRLPRPRPRPFIVPRP	-0.477
RRIRYRPPRLPRPRPRPEENPRP	-0.0116
RRIRARPPRLPRPRPRPNFNPRP	-0.0686
RRIRWRPPRLPRPRPRPFDWPRP	0.344
RRIRWRPPRLPRPRPRPWRSPRP	0.49
RRIRYRPPRLPRPRPRPRLDPRP	-0.176
RRIRFRPPRLPRPRPRPWMIPRP	-0.00776
RRIRQRPPRLPRPRPRPRTLPRP	0.0409
RRIRVRPPRLPRPRPRPTTFPRP	-0.118
RRIRKRPPRLPRPRPRPTDAPRP	0.05
RRIRQRPPRLPRPRPRPACWPRP	0.401
RRIRYRPPRLPRPRPRPRDGPRP	-0.0431
RRIRTRPPRLPRPRPRPFINPRP	-0.161
RRIRPRPPRLPRPRPRPPIVPRP	0.161
RRIRKRPPRLPRPRPRPNQPPRP	0.146
RRIRVRPPRLPRPRPRPMVRPRP	0.00709
RRIRCRPPRLPRPRPRPWEEPRP	0.0492
RRIRHRPPRLPRPRPRPCPQPRP	-0.195
RRIRQRPPRLPRPRPRPENPPRP	0.0317
RRIRSRPPRLPRPRPRPRLRPRP	0.287
RRIRPRPPRLPRPRPRPCLVPRP	-0.179
RRIRGRPPRLPRPRPRPDYGPRP	0.0184
RRIRWRPPRLPRPRPRPFFAPRP	0.367
RRIRHRPPRLPRPRPRPRYVPRP	-0.585

Sequence	shrunken log2 fold change
RRIRCRPPRLPRPRPRPLSHPRP	-0.432
RRIRWRPPRLPRPRPRPYDQPRP	-0.395
RRIRSRPPRLPRPRPRPDGDPRP	-0.197
RRIRNRPPRLPRPRPRPNKLPRP	-0.36
RRIRPRPPRLPRPRPRPLQEPRP	0.18
RRIRHRPPRLPRPRPRPYQAPRP	-0.00987
RRIRQRPPRLPRPRPRPFMNPRP	-0.148
RRIRMRPPRLPRPRPRPQEMPRP	-0.0105
RRIRWRPPRLPRPRPRPSRIPRP	-0.338
RRIRPRPPRLPRPRPRPPDIPRP	-0.602
RRIRNRPPRLPRPRPRPITPPRP	0.119
RRIRSRPPRLPRPRPRPHDVPRP	-0.0229
RRIRIRPPRLPRPRPRPDYHPRP	-1.9
RRIRDRPPRLPRPRPRPMSWPRP	0.262
RRIRTRPPRLPRPRPRPESNPRP	-0.178
RRIRCRPPRLPRPRPRPYLCPRP	-0.455
RRIRLRPPRLPRPRPRPTKSPRP	0.127
RRIRKRPPRLPRPRPRPTCSPRP	0.281
RRIRSRPPRLPRPRPRPSLGPRP	0.319
RRIRRRPPRLPRPRPRPGHDPRP	0.0801
RRIRCRPPRLPRPRPRPQWHPRP	0.0206
RRIRKRPPRLPRPRPRPCWYPRP	-0.139
RRIRLRPPRLPRPRPRPPQNPRP	1.26
RRIRIRPPRLPRPRPRPCRGPRP	0.0305
RRIRSRPPRLPRPRPRPMIWPRP	0.027

Sequence	shrunken log2 fold change
RRIRARPPRLPRPRPRPNDHPRP	-0.0473
RRIRYRPPRLPRPRPRPDYPPRP	-0.14
RRIRWRPPRLPRPRPRPWYVPRP	-0.396
RRIRERPPRLPRPRPRPGRPPRP	0.164
RRIRRRPPRLPRPRPRPHMHPRP	-0.083
RRIRRRPPRLPRPRPRPNHMPRP	-0.299
RRIRPRPPRLPRPRPRPHAAPRP	0.3
RRIRHRPPRLPRPRPRPRVRPRP	0.0975
RRIRNRPPRLPRPRPRPPDSPRP	0.0377
RRIRKRPPRLPRPRPRPTEVPRP	0.158
RRIRYRPPRLPRPRPRPVGYPRP	-0.152
RRIRERPPRLPRPRPRPFFIPRP	-0.354
RRIRFRPPRLPRPRPRPPHAPRP	0.491
RRIRPRPPRLPRPRPRPYVNPRP	-1.34
RRIRDRPPRLPRPRPRPLKAPRP	-0.214
RRIRTRPPRLPRPRPRPFMNPRP	-0.787
RRIRCRPPRLPRPRPRPIPLPRP	0.148
RRIRKRPPRLPRPRPRPYIVPRP	-0.404
RRIRARPPRLPRPRPRPESGPRP	0.793
RRIRKRPPRLPRPRPRPYTNPRP	-0.21
RRIRPRPPRLPRPRPRPCKLPRP	-0.609
RRIRVRPPRLPRPRPRPADYPRP	0.0436
RRIRVRPPRLPRPRPRPEETPRP	0.00893
RRIRQRPPRLPRPRPRPVFMPRP	-0.155
RRIRPRPPRLPRPRPRPAFFPRP	0.186

Sequence	shrunken log2 fold change
RRIRERPPRLPRPRPRPWVVPRP	-0.151
RRIRSRPPRLPRPRPRPRLCPRP	0.28
RRIRHRPPRLPRPRPRPWVQPRP	0.0187
RRIRFRPPRLPRPRPRPKWNPRP	-0.217
RRIRNRPPRLPRPRPRPGQRPRP	0.00993
RRIRMRPPRLPRPRPRPCWRPRP	0.14
RRIRRRPPRLPRPRPRPNYRPRP	0.0832
RRIRERPPRLPRPRPRPRKDPRP	-0.245
RRIRTRPPRLPRPRPRPGECPRP	-0.258
RRIRCRPPRLPRPRPRPDMYPRP	-0.561
RRIRMRPPRLPRPRPRPDITPRP	2.12
RRIRFRPPRLPRPRPRPQGRPRP	0.19
RRIRPRPPRLPRPRPRPGPMPRP	0.293
RRIRGRPPRLPRPRPRPHITPRP	-0.0465
RRIRKRPPRLPRPRPRPNFHPRP	0.676
RRIRCRPPRLPRPRPRPGNLPRP	-0.167
RRIRGRPPRLPRPRPRPEGWPRP	1.99
RRIRERPPRLPRPRPRPFWQPRP	-0.0859
RRIRCRPPRLPRPRPRPSRWPRP	0.599
RRIRYRPPRLPRPRPRPGYEPRP	0.026
RRIRTRPPRLPRPRPRPWCIPRP	-0.19
RRIRKRPPRLPRPRPRPQLYPRP	0.0948
RRIRHRPPRLPRPRPRPFSPPRP	0.0457
RRIRIRPPRLPRPRPRPGMYPRP	0.123
RRIRMRPPRLPRPRPRPMIIPRP	-0.117

Sequence	shrunken log2 fold change
RRIRYRPPRLPRPRPRPIDPPRP	-0.00088
RRIRWRPPRLPRPRPRPTSFPRP	-0.0166
RRIRTRPPRLPRPRPRPRNAPRP	0.0522
RRIRMRPPRLPRPRPRPLNEPRP	0.216
RRIRQRPPRLPRPRPRPIEVPRP	0.0112
RRIRERPPRLPRPRPRPDCTPRP	0.104
RRIRCRPPRLPRPRPRPYICPRP	-0.419
RRIRPRPPRLPRPRPRPTPQPRP	0.497
RRIRHRPPRLPRPRPRPMIIPRP	-0.205
RRIRPRPPRLPRPRPRPMSAPRP	0.0743
RRIRGRPPRLPRPRPRPSKAPRP	0.165
RRIRKRPPRLPRPRPRPWNLPRP	-0.109
RRIRDRPPRLPRPRPRPMPAPRP	0.354
RRIRIRPPRLPRPRPRPPPQPRP	0.52
RRIRWRPPRLPRPRPRPKAAPRP	0.338
RRIRHRPPRLPRPRPRPKPMPRP	0.223
RRIRTRPPRLPRPRPRPASCPRP	0.066
RRIRPRPPRLPRPRPRPYLNPRP	-0.765
RRIRYRPPRLPRPRPRPTEIPRP	-0.41
RRIRNRPPRLPRPRPRPYSHPRP	-0.317
RRIRHRPPRLPRPRPRPQKCPRP	-0.0302
RRIRFRPPRLPRPRPRPRNHPRP	-0.132
RRIRFRPPRLPRPRPRPVLLPRP	-0.209
RRIRARPPRLPRPRPRPQIGPRP	3.24
RRIRYRPPRLPRPRPRPYSYPRP	-0.395
